Substitutions are numbered along the chain they refer to. Names and notes keep the numbering of the source.
Biological target: the molecule itself
Experiment: cryo-EM structure

B1: wild-type (WT) human asparagine synthetase (ASNS) (enzyme, UniProt P08243 1-561, looked up)
chain: MCGIWALFGSDDCLSVQCLSAMKIAHRGPDAFRFENVNGYTNCCFGFHRLAVVDPLFGMQPIRVKKYPYLWLCYNGEIYNHKKMQQHFEFEYQTKVDGEIILHLYDKGGIEQTICMLDGVFAFVLLDTANKKVFLGRDTYGVRPLFKAMTEDGFLAVCSEAKGLVTLKHSATPFLKVEPFLPGHYEVLDLKPNGKVASVEMVKYHHCRDVPLHALYDNVEKLFPGFEIETVKNNLRILFNNAVKKRLMTDRRIGCLLSGGLDSSLVAATLLKQLKEAQVQYPLQTFAIGMEDSPDLLAARKVADHIGSEHYEVLFNSEEGIQALDEVIFSLETYDITTVRASVGMYLISKYIRKNTDSVVIFSGEGSDELTQGYIYFHKAPSPEKAEEESERLLRELYLFDVLRADRTTAAHGLELRVPFLDHRFSSYYLSLPPEMRIPKNGIEKHLLRETFEDSNLIPKEILWRPKEAFSDGITSVKNSWFKILQEYVEHQVDDAMMANAAQKFPFNTPKTKEGYYYRQVFERHYPGRADWLSHYWMPKWINATDPSARTLTHYKSAVKA
- stoichiometry N: 2

B2: R142I variant of human asparagine synthetase (ASNS) (enzyme, UniProt P08243 1-561, looked up)
chain: B1 chain with R143I
- stoichiometry N: 2
